Experimental data taken from the DeepSol protein solubility set.

Assay: soluble on expression in E. coli; label from the status in PepcDB or PDB records

For “MEASRLLLLEDSSVDAELIEDQLSRLSPPPAVTRAVGKASFIEALEKQQFDIILADFSLPDFDGMSALDLVMRTRPDTPFIFVSGILGEDAAIDAFRRGATDYVLKQRLVRLPSAVERALAEAREKQERKRAELHKELLVRELSHRVKNTMAMVVSIIRRTAKGSTSIKDYQERLVARVSALAESHALLFQSNWGETNLRDVVKRAIEPHNTFASRVELEGPDGVHVSPKSALALGMILHELATNAQKYGSLSGANGKVEVFWKKILNGDGNDCIDLRWQESGGPPVSVPQDTGFGTTLITRGVQYELQAESEIRYDPDGLQYRVIFPLD”, the “soluble on expression in E. coli” value was “not soluble”.

For “MGSDKIHHHHHHMKEAGILFEELVSIMEKLRSPEGCEWDRKQTHESLKPYLIEECYELIEAIDEKNDDMMKEELGDVLLQVVFHAQIARERGAFTIEDVIRTLNEKLIRRHPHVFGDSPGYSYKQWEDIKAQEKGKKKSSRIGEINPLVPALSMARRIQENASQVGFDWKDPEGVYEKIEEELKELKEAKDPRELEEEFGDLLFSIVNLSRFLNVDPESALRKATRKFVERFKKMEELIEKDGLVLEELPIEKLDEYWEKAKGGDET”, the “soluble on expression in E. coli” value was “not soluble”.

For “MAHHHHHHSLNDYTQQLQGKKDYLKTLFAGLDVPEWEVYESPDKHYRMRAEFRIWHEGGEMFYAMFEKGQKASGASMIRCDRFEAASEAVNRLMPELIAAAAQSPELKKRWYAVEFLSTLSGEMLVTMIYHKRLDAEWMQAAQALQQQLDISVIGRSRGQKIVLKQDYVTETLKVGNRDFRYRQIEGSFTQPNAAVCQKMLEWACRTAEGLGSDLLELYCGNGNFTLPLSRYFRQVLATEISKTSVSAAQWNIEANRIGNIKIARLSAEEFTEAYTGKREFKRLKDGGIALTDYAFSTIFVDPPRAGIDEETLKLVSQFDNIIYISCNPETLRANLDTLAETHAVERAALFDQFPFTHHIESGVLLKKKILEG”, the “soluble on expression in E. coli” value was “soluble”.

In the case of “MRIAIIGSGCSGLTAIKNLLDAGLKEIICFEKSDQIGGNWVYTAAPSHSSVSEATHIISSKALSQFSDFPMPDDYPDYPSHQQILAYFQAYTRHFHLDHYIRFNTAVLRAEKIEKERWCLHLDDGTQAEFDYLLVANGHHSVPRHPDWKECFTGKYLHAHEYKTNQGLEGKRILVVGAGNSGCDCAVEASRVAARVDISLRSPQYIIPKFIMGRPTDTFAATFHWLPQSVQDGLQRISLRLQIGRYHDYALPEPDFSPTRAHPTINSALFDKIRHGKVHPRPGIQKVSGQTVYFADNATAQYDVLIAATGYKISFPFFDRDFLDWEEAAHIPLFLRIFHPDHPSLFFVGLIQPQGCIWPLAEIQARLIGQLLTNKIQLPLNWRKLALSEGRNRAQQFIARPRHSIEVHYYPYLKQLQRMIQGQIKLEHHHHHH”, the “soluble on expression in E. coli” value is reported as “soluble”.

With “MAHHHHHHMGTLEAQTQGPGSMTPAAHPPRAAIADIAGHLPEQVLTNDVLAQLYPDWPAEKILAKTGIRERRIAAPRETAADLAYEAARKLFAQGAVGADQVDFVILCTQAPDYVLPTSACMLQHRLGIPTHAGALDVNLGCSGYVYGLSLAKGLVETGAARCVLLLTADTYSKYLHPLDKSVRTLFGDGASATAVIAEHGELERIGPFVFGTDGRGAPNLIVKAGLFREPKSADSAREHEDASGNVRTDEHLYMNGAEVMAFSLAEVPRAADRLLALAGEPRENIDCFVLHQANRFMLDALRKKMKIPEHKFPVLMEHCGNTVSSTLPLALETMRANGTLARGMRLMLLGFGVGYSWAGCLVNF” the “soluble on expression in E. coli” value was “soluble”.

For “MKDKKTISILGCGWLGLPLAEAFIQSGFRVKGSTTREERLSVIEAAGAEGYVLKADGGAWTGERLNDFLRCDILLIAIPPGTKRNANSTHAVEIGQLMDHIKKYSIAIKQLIYISSTSVYKNINSVVIESDTAIPSNIGNQILFQAEKHVHESVIERKLILRLGGLTGYDRMLGRFFAGKQELAGGNEPVNLVHRDDVVACILFLLKNGIGEQVFNICSPQHPSRKEFYTRLCDRFNLPEPH”, the “soluble on expression in E. coli” value was “not soluble”.

In the case of “SLAKYLELSMGFEEVAYRGLETNSRRLASHVVRNGNILFEIINTLESVAEHYPTVPMSKEEALSIKLDYSADEAHILKSLKEKIIKLTAEIVDENLDRYKYAMDIKAAKENLERSIINSTNFTAAISTIRKSINECVETSKKAIQDNFESFLIQEFVKIHGEGVMDISFNVLDVDSAFQKAIESGAYIIKLPQTMSDVHGSVKLATIAVPYTDIHHTLIQNKDYSGPFLPNYTKSIIEKPETYMHQLESLPPIRLDCIDHCVENYSWNQMMEHARFYANIFGFHKYWSVDEKDVFTGETALKSIVMASSNGKVKMPINEPAKGRKKSQIEEFYDFNGGPGVQHIALKTNDIIATVTSLRKRGIEFNPASQKYYDTLKQRLINDDIILKEDFNSIQNLNILVDYDPETRNNASKTCNYILQIFTKPLHDRPTLFIEIIQRRHHNGFGKGTFKGLFETIEAQQKLRGTLVSSDEG”, the “soluble on expression in E. coli” value is reported as “not soluble”.

In the case of “DHAAPLIFLIAGTGAPYNSTINEFLKKLYYGAGYHVVQLSSPTSYDFMSSASRFATPGVSTEDAEDLYRVMQAIRAQQAQLPVTDYYLTGYSLGALNAAFVSKLDETRRSFNFKKVLLLNPPVNLYTSISNLDKLVQTNVKGINNTTTFYELVLAKLTRYFRQKGYIDLNDALLFDFQQSKQHLTNEQMAMLIGTSFRFSSADIAFTSDLINRRGLIIPPKFPISEGTSLTPFLKRALQCDFDCYLTEQVIPMWRARTDGGSLLQLVDQVSLYALKDYLHSNTKIAVMHNADDVILGAGDLGFLRKTFGDRLTVYPYGGHCGNLNYRVNTDAMLEFFRG”, the “soluble on expression in E. coli” value is reported as “not soluble”.

In the case of “MNLTNYHSHTLYCDGRAGMEDFIRFAISRGFTSYGISSHAPLPFPTHWTMEWDRMDDYLDEFTRMKEKYASEIELAVGLEIDYLNEDSNPSVRRFQELPLDYRIGSVHLLYNDRDEVVDIDVCAEVFRDIVDQHFGGDLDRVIHLYYDRLLRMVELGGFDILGHADKMHHNAACYRPGLLDESWYDALIHDYFSAVAAKGYIVEINTKALHHLNTFFPNERYFPLLKELGVRVQVNSDSHYPERINSGRPEALAALQKAGFETVTEWHGGKWIEMPLLEHHHHHH”, the “soluble on expression in E. coli” value is reported as “soluble”.

In the case of “GSMAGWQSYVDNLMCDGCCQEAAIVGYCDAKYVWAATAGGVFQSITPAEIDVIIGKDREGFFTNGLTLGGKKCSVIRDSLYVDSDCTMDIRTKSQGGEPTYNVAVGRAGRVLVFVMGKEGVHGGGLNKKAYSMAKYLRDSGF”, the “soluble on expression in E. coli” value is reported as “soluble”.

With “MLKQPIQAQQLIELLKVHYGIDIHTAQFIQGGADTNAFAYQADSESKSYFIKLKYGYHDEINLSIIRLLHDSGIKEIIFPIHTLEAKLFQQLKHFKIIAYPFIHAPNGFTQNLTGKQWKQLGKVLRQIHETSVPISIQQQLRKEIYSPKWREIVRSFYNQIEFDNSDDKLTAAFKSFFNQNSAAIHRLVDTSEKLSKKIQPDLDKYVLCHSDIHAGNVLVGNEESIYIIDWDEPMLAPKERDLMFIGGGVGNVWNKPHEIQYFYEGYGEINVDKTILSYYRHERIVEDIAVYGQDLLSRNQNNQSRLESFKYFKEMFDPNNVVEIAFATEQLEHHHHHH” the “soluble on expression in E. coli” value was “soluble”.

With “MGHHHHHHSHMTLRCLEPSGNGGEGTRSQWGTAGSAEEPSPQAARLAKALRELGQTGWYWGSMTVNEAKEKLKEAPEGTFLIRDSSHSDYLLTISVKTSAGPTNLRIEYQDGKFRLDSIICVKSKLKQFDSVVHLIDYYVQMCKDKRTGPEAPRNGTVHLYLTKPLYTSAPSLQHLCRLTINKCTGAIWGLPLPTRLKDYLEEYKFQV” the “soluble on expression in E. coli” value was “not soluble”.

With “MKIWSSEHVFGHPWDTVIKAAMRKYPNPMNPCVVGVDVLERSVDGCGRLHSLRLLSTEWGLPGLVRAILGANRTLTYIKERSVVDPAARKMELCSTNITLTNLVSVNERLVYTPHPENPEKTVLTQEAIITVKGISLGSYLESLMATTISSNAKKGWAAIEWIIEHSESAIS” the “soluble on expression in E. coli” value was “not soluble”.

In the case of “MDVIKIGDIVARKSYQCDLLFRVIDIKEKNGEWEAILYGEDVRLVADAPCSDLVVIDEQEQQERKKREIELLEQSYRLFRQDYQAIKQKVEYRATGGYRVEKDFFQIPGRVLHLDGDPLYLRKCMDLYERIGVPVHGIYCEESEMPEKVGYWIEQFRPDILVITGHDSYSKSKGKVHELKAYRHSRHFVQTVKEARKKVPHLDQLIIFAGACQSHFESLIRAGANFASSPARVNIHALDPVYIVSRLSFTPFTETVDVWDVLRNTLTGEKGLGGVETKGVLRTGMPFRLIEDREENRRS”, the “soluble on expression in E. coli” value is reported as “not soluble”.
